According to patent US20240117018A1:

Tests used:
Assay in all cases: cell-based or functional assay
[1] = biological target: 0260.v5.c36 Env pseudovirus (HIV-1)
[2] = biological target: 1012_11_TC21_3257 Env pseudovirus (HIV-1)
[3] = biological target: 191084 B7-19 Env pseudovirus (HIV-1)
[4] = biological target: 249M B10 Env pseudovirus (HIV-1)
[5] = biological target: 3365.v2.c2 Env pseudovirus (HIV-1)
[6] = biological target: 3415.v1.c1 Env pseudovirus (HIV-1)
[7] = biological target: 6240_08_TA5_4622 Env pseudovirus (HIV-1)
[8] = biological target: 6244_13_B5_4576 Env pseudovirus (HIV-1)
[9] = biological target: 7030102001E5(Rev-) Env pseudovirus (HIV-1)
[10] = biological target: BF1266.431a Env pseudovirus (HIV-1)
[11] = biological target: CAP210.2.00.E8 Env pseudovirus (HIV-1)
[12] = biological target: CNE20 Env pseudovirus (HIV-1)
[13] = biological target: CNE21 Env pseudovirus (HIV-1)
[14] = biological target: CNE30 Env pseudovirus (HIV-1)
[15] = biological target: Ce0393_C3 Env pseudovirus (HIV-1)
[16] = biological target: Ce0682_E4 Env pseudovirus (HIV-1)
[17] = biological target: Ce1086_B2 Env pseudovirus (HIV-1)
[18] = biological target: Ce2060_G9 Env pseudovirus (HIV-1)
[19] = biological target: Ce704809221_1B3 Env pseudovirus (HIV-1)
[20] = biological target: Du156.12 Env pseudovirus (HIV-1)
[21] = biological target: Du172.17 Env pseudovirus (HIV-1)
[22] = biological target: MS208.A1 Env pseudovirus (HIV-1)
[23] = biological target: PVO.4 Env pseudovirus (HIV-1)
[24] = biological target: Q23.17 Env pseudovirus (HIV-1)
[25] = biological target: Q461.e2 Env pseudovirus (HIV-1)
[26] = biological target: Q769.d22 Env pseudovirus (HIV-1)
[27] = biological target: SC05_8C11_2344 Env pseudovirus (HIV-1)
[28] = biological target: SC422661.8 Env pseudovirus (HIV-1)
[29] = biological target: T257-31 Env pseudovirus (HIV-1)
[30] = biological target: THRO4156.18 Env pseudovirus (HIV-1)
[31] = biological target: WITO4160.33 Env pseudovirus (HIV-1)
[32] = biological target: ZM109F.PB4 Env pseudovirus (HIV-1)
[33] = biological target: ZM214M.PL15 Env pseudovirus (HIV-1)
[34] = biological target: ZM233M.PB6 Env pseudovirus (HIV-1)
[35] = biological target: ZM249M.PL1 Env pseudovirus (HIV-1)
[36] = biological target: ZM53M.PB12 Env pseudovirus (HIV-1)

B1: N49P22 (antibody, V domains shown)
V domain 1: HIQLLQSGPQVKKSGDTVRISCETSGYNFVDSRIHWVRQTPEKRLRWMGWINPLQGGVNYAPEFQGRIRMTRDTFIDTVYVDLSGLTPADTAYYYCARGIDGKSYPFHFWGHGTRVTVFS
V domain 2: RFALTQPASVSGSPGQTITITCAGGSVSWFHFPPGKTPRLIIYESSKRPSGVSPRFSGSQSGSTASLIISGLQSDDEGTYFCSILEFFGRGTLVTVLS
IC50 [1]: 1.67 µg/mL
IC80 [1]: 14.4 µg/mL
MPI [1]: 93
IC50 [2]: 15.7 µg/mL
IC80 [2]: > 50 µg/mL
MPI [2]: 53
IC50 [3]: 0.343 µg/mL
IC80 [3]: 1.64 µg/mL
MPI [3]: 98
IC50 [4]: > 50 µg/mL
IC80 [4]: > 50 µg/mL
MPI [4]: 4
IC50 [5]: 0.254 µg/mL
IC80 [5]: 0.857 µg/mL
MPI [5]: 98
IC50 [6]: 0.198 µg/mL
IC80 [6]: 1.41 µg/mL
MPI [6]: 96
IC50 [7]: 2.33 µg/mL
IC80 [7]: 9.76 µg/mL
MPI [7]: 93
IC50 [8]: 0.565 µg/mL
IC80 [8]: 2.48 µg/mL
MPI [8]: 97
IC50 [9]: > 50 µg/mL
IC80 [9]: > 50 µg/mL
MPI [9]: 21
IC50 [10]: > 50 µg/mL
IC80 [10]: > 50 µg/mL
MPI [10]: 0
IC50 [11]: > 50 µg/mL
IC80 [11]: > 50 µg/mL
MPI [11]: 6
IC50 [12]: > 50 µg/mL
IC80 [12]: > 50 µg/mL
MPI [12]: 18
IC50 [13]: > 50 µg/mL
IC80 [13]: > 50 µg/mL
MPI [13]: 0
IC50 [14]: > 50 µg/mL
IC80 [14]: > 50 µg/mL
MPI [14]: 30
IC50 [15]: > 50 µg/mL
IC80 [15]: > 50 µg/mL
MPI [15]: 12
IC50 [16]: 1.13 µg/mL
IC80 [16]: > 50 µg/mL
MPI [16]: 75
IC50 [17]: > 50 µg/mL
IC80 [17]: > 50 µg/mL
MPI [17]: 0
IC50 [18]: > 50 µg/mL
IC80 [18]: > 50 µg/mL
MPI [18]: 19
IC50 [19]: 15.8 µg/mL
IC80 [19]: > 50 µg/mL
MPI [19]: 60
IC50 [20]: > 50 µg/mL
IC80 [20]: > 50 µg/mL
MPI [20]: 4
IC50 [21]: > 50 µg/mL
IC80 [21]: > 50 µg/mL
MPI [21]: 4
IC50 [22]: > 50 µg/mL
IC80 [22]: > 50 µg/mL
MPI [22]: 17
IC50 [23]: 0.433 µg/mL
IC80 [23]: 1.49 µg/mL
MPI [23]: 100
IC50 [24]: 0.321 µg/mL
IC80 [24]: 2.4 µg/mL
MPI [24]: 96
IC50 [25]: 11.2 µg/mL
IC80 [25]: > 50 µg/mL
MPI [25]: 66
IC50 [26]: 0.043 µg/mL
IC80 [26]: 0.259 µg/mL
MPI [26]: 100
IC50 [27]: 0.251 µg/mL
IC80 [27]: 2.16 µg/mL
MPI [27]: 97
IC50 [28]: 0.12 µg/mL
IC80 [28]: 0.544 µg/mL
MPI [28]: 100
IC50 [29]: > 50 µg/mL
IC80 [29]: > 50 µg/mL
MPI [29]: 43
IC50 [30]: > 50 µg/mL
IC80 [30]: > 50 µg/mL
MPI [30]: 32
IC50 [31]: 4.86 µg/mL
IC80 [31]: > 50 µg/mL
MPI [31]: 74
IC50 [32]: > 50 µg/mL
IC80 [32]: > 50 µg/mL
MPI [32]: 1
IC50 [33]: > 50 µg/mL
IC80 [33]: > 50 µg/mL
MPI [33]: 25
IC50 [34]: > 50 µg/mL
IC80 [34]: > 50 µg/mL
MPI [34]: 2
IC50 [35]: > 50 µg/mL
IC80 [35]: > 50 µg/mL
MPI [35]: 0
IC50 [36]: 1.2 µg/mL
IC80 [36]: 11.8 µg/mL
MPI [36]: 91
